According to the supplement of paper PMC7125110:
± gives the standard error. Fewer inactive variants are shown than the library holds.

B1: glmS ribozyme (parent)
chain: AUAAAAGCGCCAGAACUACAGAAAUGUAGUUGACGAGGAGGAGGUUUAUCGAAUUUUCGGCGGAUGCCUCCAAA

How the values were obtained:
Details in all cases: with glucosamine-6-phosphate
glucosamine-6-phosphate [1] = variants of: B1; assay: self-cleavage kobs at 160 uM GlcN6P; higher = faster cleavage; RNA array
Summary of the method: (§1)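 Barcoded ribozyme variants on sequenced MiSeq chips were transcribed in situ by E. coli RNA polymerase and followed at 37 °C through a hybridised Cy3 probe. Glucosamine-6-phosphate at 40 μM to 10 mM in HEPES/KCl/Mg(OAc)2 buffer was flowed in, and tiles were imaged over ~14 h. Signals were normalised to baseline and to non-cleaving reference variants, and per-tile medians were fit to one- or two-exponential decays to give kobs. Weighted Michaelis–Menten fits across concentrations gave kcat and KM.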

glucosamine-6-phosphate [2] = variants of: B1; assay: self-cleavage kobs at 640 uM GlcN6P; higher = faster cleavage; RNA array
Summary of the method: as §1

glucosamine-6-phosphate [3] = variants of: B1; assay: self-cleavage kobs at 2500 uM GlcN6P; higher = faster cleavage; RNA array
Summary of the method: as §1

glucosamine-6-phosphate [4] = variants of: B1; assay: self-cleavage kobs at 10000 uM GlcN6P; higher = faster cleavage; RNA array
Summary of the method: as §1

Variant	self-cleavage kobs at 160 uM GlcN6P (glucosamine-6-phosphate [1]) [s⁻¹]	self-cleavage kobs at 640 uM GlcN6P (glucosamine-6-phosphate [2]) [s⁻¹]	self-cleavage kobs at 2500 uM GlcN6P (glucosamine-6-phosphate [3]) [s⁻¹]	self-cleavage kobs at 10000 uM GlcN6P (glucosamine-6-phosphate [4]) [s⁻¹]
AUAAAAGCGCCAGAACUACAGAAAUGUAGUUGACGAGGAGGAUGUUUAUCGAAUUUUCGGCUGAUGUCUCCAAA [G43U G62U C67U]	< 1e-05	< 1e-05		
AUAAAAGCGCCAGAACUACAGAAAUGUAGUUGACGAGGAGGAGUUUUAUCGAAUUUUUGGCGGAUGCCUCCAAA [G44U C58U]	< 1e-05	< 1e-05	< 1e-05	< 1e-05
AUAAAAGCGCCAGAACUACAGAAAUGUAGUUGACGAGGAGGAGUUUUAUUGAAUUUUCGGCGGAUGCCUCAAAA [G44U C50U C71A]	< 1e-05	< 1e-05		
AUAAAAGCGCCAGAACUACAGAAAUGUAGUUGACGAGGAGGAGCUUUAUCGAAAUUUCGGCGGAUGCUUCCAAA [G44C U54A C68U]	< 1e-05			
AUAAAAGCGCCAGAACUACAGAAAUGUAGUUGACGAGGAGGAGAUUUAUCGAAUUUUCGGUGGAUGCCUCCAAA [G44A C61U]	< 1e-05	< 1e-05	< 1e-05	< 1e-05
AUAAAAGCGCCAGAACUACAGAAAUGUAGUUGACGAGGAGGAGUUUUAUCGAAUUUUCGGCGGAUGCCUCGAAA [G44U C71G]	< 1e-05	< 1e-05		< 1e-05
AUAAAAGCGCCAGAACUACAGAAAUGUAGUUGACGAGGAGGAGGAUUAUCGAAUUUUCGGCGGAUGGAUCCAAA [U45A C67G C68A]	7.91e-05 ± 1.9e-05	0.000177 ± 4.1e-05	0.000173 ± 4.7e-05	
AUAAAAGCGCCAGAACUACAGAAAUGUAGUUGACGAGGAGGAGUUUUAUAGAAUUUUCGGCGGAUGCGUCCAAA [G44U C50A C68G]	< 1e-05		< 1e-05	
AUAAAAGCGCCAGAACUACAGAAAUGUAGUUGACGAGGAGGAUGUUUAACGUAUUUUCGGCGGAUGCCUCCAAA [G43U U49A A52U]	< 1e-05	< 1e-05	< 1e-05	
AUAAAAGCGCCAGAACUACAGAAAUGUAGUUGACGAGGAGGAGCUUUAUCGAAUUUUCGGCCGAUACCUCCAAA [G44C G62C G66A]	< 1e-05	< 1e-05		
AUAAAAGCGCCAGAACUACAGAAAUGUAGUUGACGAGGAGGAUGUUUAUCGAAUUUUCGGCGGAUUUCUCCAAA [G43U G66U C67U]	< 1e-05			
AUAAAAGCGCCAGAACUACAGAAAUGUAGUUGACGAGGAGGAGCUUUAUCGAAUUUUCAGCGGAUGCCUCCAAA [G44C G59A]	< 1e-05	< 1e-05	< 1e-05	< 1e-05
AUAAAAGCGCCAGAACUACAGAAAUGUAGUUGACGAGGAGGAGUUUUAUCGAAUUUUCUGCGGAUGCCUCCAAA [G44U G59U]	< 1e-05	< 1e-05	< 1e-05	< 1e-05
AUAAAAGCGCCAGAACUACAGAAAUGUAGUUGACGAGGAGGAGGAUUAUCGAACUUUCGGCGGAUGCCUCCAAA [U45A U54C]	0.00513 ± 0.001	0.0141 ± 0.0026		
